According to article PMC10130221:

Legend:
Assay in all cases: filter binding
[1] = test system: TrmB D144A (Escherichia coli); conditions: none (in vitro transcribed), becomes m7G46 during incubation with SAM, TAKEM4: 50 mM Tris-HCl pH 7.5, 70 mM NH4Cl, 30 mM KCl, 1 mM EDTA, 4 mM MgCl2, filter binding 20 nM tRNA, 10 min (temperature not given in the material) …
[2] = test system: TrmB R155A (Escherichia coli); conditions: max. about 30% bound, none (in vitro transcribed), becomes m7G46 during incubation with SAM, TAKEM4: 50 mM Tris-HCl pH 7.5, 70 mM NH4Cl, 30 mM KCl, 1 mM EDTA, 4 mM MgCl2, filter binding 20 nM tRNA, 10 min (temperature not given in the material) …
[3] = test system: TrmB R26A (Escherichia coli); conditions: none (in vitro transcribed), becomes m7G46 during incubation with SAM, TAKEM4: 50 mM Tris-HCl pH 7.5, 70 mM NH4Cl, 30 mM KCl, 1 mM EDTA, 4 mM MgCl2, filter binding 20 nM tRNA, 10 min (temperature not given in the material) …
[4] = test system: TrmB T217A (Escherichia coli); conditions: none (in vitro transcribed), becomes m7G46 during incubation with SAM, TAKEM4: 50 mM Tris-HCl pH 7.5, 70 mM NH4Cl, 30 mM KCl, 1 mM EDTA, 4 mM MgCl2, filter binding 20 nM tRNA, 10 min (temperature not given in the material) …
[5] = test system: TrmB WT (Escherichia coli); conditions: none (in vitro transcribed), becomes m7G46 during incubation with SAM, TAKEM4: 50 mM Tris-HCl pH 7.5, 70 mM NH4Cl, 30 mM KCl, 1 mM EDTA, 4 mM MgCl2, filter binding 20 nM tRNA, 10 min (temperature not given in the material) …

Substance: [3H]tRNAPhe (unmodified transcript)
- Kd ([1]; 50 uM SAM): 0.8 µM
- Kd ([1]; no SAM): 2.5 µM
- Kd ([2]; 50 uM SAM): 5.8 µM
- Kd ([2]; no SAM): 10 µM
- Kd ([3]; 50 uM SAM): 5.1 µM
- Kd ([3]; no SAM, max. about 20% bound): 6.4 µM
- Kd ([4]; 50 uM SAM): 2.6 µM
- Kd ([4]; no SAM): 5.4 µM
- Kd ([5]; 50 uM SAM, tRNA becomes m7G46 product in 10 min): 2.1 µM
- Kd ([5]; no SAM): 6.6 µM
